Experimental findings from PMC4339652 (2015) are described below.

For the assay, the target named is T1, G3p N1 (Filamentous phage, UniProt O80297).
T1 chain: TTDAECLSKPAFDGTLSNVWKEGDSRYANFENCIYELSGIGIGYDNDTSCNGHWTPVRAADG
In words: SPR. Background: Surface plasmon resonance follows binding to a sensor surface in real time, without labels.

B1: TolA TolAIII (protein)
chain: GGGAKGNNASPAGSGNTKNNGASGADINNYAGQIKSAIESKFYDASSYAGKTCTLRIKLAPDGMLLDIKPEGGDPALCQAALAAAKLAKIPKPPSQAVYEVFKNAPLDFKP
The term Kd denotes the free concentration of one partner at which half of the binding sites on the other are occupied at equilibrium, for simple one-to-one binding. A higher Kd goes with lower affinity. Turning to B1, binding was characterised by a dissociation constant (Kd) of 14.9 µM. That is a double-digit micromolar value.
